Measurements as given in the DeepSol protein solubility set.

Assay: soluble on expression in E. coli; label from the status in PepcDB or PDB records

Soluble on expression in E. coli, not soluble:
MGSDKIHHHHHHMQDFLEFQSISKGYPGVQALSEVSFSVRKGAVHGLMGENGAGKSTLIRVLSGDQAADTGEIRINGEPQHYRSVRDAFNAGVIVIHQELQLVPELTVAENLWLGRFPGKAGVIDRRQLIRVVSDRLAEIGIDVDPEAKVASLSIGERQMVEIAKAVMTDARVIALDEPTSSLSSRESEILFALIDRLRSNGTVILYVSHRLDEIFRLCNSLTVLRDGRLAAHHPDISKVGREQIIAEMVGREISNIWGWRARTLGAARLTVERVSGANLPQPISFTVRAGEILGFFGLIGAGRSEMARLVYGADRRRQGKVLVDGLAVPADSPRLSIRAGVVLCPEDRKFDGIVQGRSIEENMAISSRRHFSPFGVVDKGKEAELAERFIAKLRVRTPSRHQDIVNLSGGNQQKVILGRWLSEEGVKVLLIDEPTRGIDVGAKSEIYEILYELAAQGMAIVVISSELPEVMGIADRILVMCEGRIAAEIDRSDFDEHRILAAALPDASATTATLPEQVS
MGSDKIHHHHHHMQDIKDLTAVLRSNTPIVVIETYEEYRVIELLKRVAMTLYQPLFTWSVTSGLSRVDKDMGSQKFNTEPAELLGQIKSTQQQGIYVLCDFHPFVQDAPRNVRLLKEIALEYDALKHTLVLVSHAFEIPPEIRRYCAHFRLSLPSRNQLENLIVEEIDKVRRQGLPLVADESAIARLADNLRGVTFDDARRLIHKAIVDDGAITHDDVERVNQAKFRLMDMDGVLRYEYDTSSFSDIAGLHNLKEWLKARAPELSPQSSAPPPKGILLLGVQGSGKSLAAKAVAGAWQRPLLRLDMAALYNKYIGETEKNLRQALELADLMSPCVLWVDEIEKGISGSSSDEGTSQRILGTLLTWMAERKSDVFLVATANDIQALPPELMRKGRMDEIFFVDLPDEEIRKAIFLIHCKKRGVDVTSMDLGLLSRASQGFSGAEIEQAVISAIYSAASRRQPVEQAIILEELSRTRPLSVVMREKIDSLRAWAKGRTMNAHLD
MGSDKIHHHHHHMQFLDDSLHPENQDKVVITVAPYGPEWMPQDFPEDIPVTMEEQVQKAVDCYNAGATVLHLHVRELDGKGSKRLSKFNELIAGVRAAVPDMIIQVGGSISFAPEDDGQAAKWLSDDTRHMLADLDPKPDQVTVAINTTQMNIMELLYPEYLEGTSLSHPAYVEAYREMTVPAGPGWVEEHLRRLSNAGIQPHFQLTGIHAMETLERMVRAGKYKGPLNLTWIGIGGGFDGPNPFNFVNFVHRAPDGCTLTAESLLKNVLPFNMMAMAMGLHPRCGIEDTIIDQHGNRMTSVQQIEQCVRVARELGREIASGKEAREIYRIGTWYDSAEETLEAHGMAPNRKAGQKNLPLRKAA
MGSDKIHHHHHHMQGAQSTVDTQSESLNADRSASVDGHPIIVGAFINMYQQLNKDNLFLLRQVYRDDICFRDPMHHVEGIEALTDYFANMYQNVTHIEFDIKEVVISADKQQAALYWTMSYSHPKLSKGQLINVEGMSQLKFSDKIFSHRDYFDLGQMLYEQVPFLGGLIGLLKNRVTK
MGSDKIHHHHHHMQHDDQPLPQTAPHGRVISHLGETDTDDATLLASIKTRLRQHNDRSAAEMEHLLQLVDALWAMELGRFLLRNRGLNANWTHQLVTYQAGTLVQQTTPALEYELFEKTPAVLATRERFGIFRTQLQALLRPGMTLASLPCGWMADVLSLDYGQCPDVRLIGIDLDPQALDGALRLAQQYGLEGQLTLQREDAWAPGEPNSVDVLSSNGLNLYEPDDARVIALYRAFFDRLRPGGTLVASFLTPPPSLCAESPWKLDLIDGAALVLQSQVFIDVVQARWASFRTHAQTRTQLESAGFTDVRFIDDRASIFPTVIARKPMSD
MGSDKIHHHHHHMQIELANFEKIYTHFVGNKSDEEGITISKTPLQLNDESLKELLLNYFTHPFKNKEYNHFHHETDLNLNELYTYCSTIFADPDALYLQSINIAKHLYEQSKHPMIKGGELYVVHFNDCVIDGESTDAIGLFKSETKETFLKIFPQGDGYEAVSDKGIDIRKLDKGCFIINSEKENGYKVCVVDQTNKSSDAQYWKDDFLKIVSRNDSFHYTQNYMNMCKSFVTDQMPETFEVSKTDQIDLLNRSVNYFKKNESFDMQAFTNDVIQDEGLIDSFKEYKNKFQEDHQMPMVDEFEISTPAVKKYAKVFKSVLKLDRNFHIYIHGDKDLIERGRDDASGMNFYKIYYKEES
MGSDKIHHHHHHMQILLANPRGFCAGVDRAISIVERALELFGTPIYVRHEVVHNRYVVNGLRERGAIFIEQIEDVPDGAILIFSAHGVSQAVRNEAKNRDLTVFDATCPLVTKVHMEVARASKKGVEAILIGHAGHPEVEGTMGQYSNADGGMYLVESPDDVWQLQVKDEKNLCFMTQTTLSVDDTYAVIDALRERFPRIIGPRKDDICYATTNRQEAVRHLSDKADVVFVVGSKNSSNSNRLAELAQRAGKAAYLIDSADDIQESWLTGASYVGVTAGASAPDILVQQVIQRLKELGGKVAVEMQGREENIVFEVPKELRVEVKQID
MGSDKIHHHHHHMQLRALMYFDELVRTNSMRAAAENLNVAPTAVSRQIENLEYYFGSPLVERSSRGVKLTAAGELLAARAGKTLRELDHVHRLIDDLKGLQRGRVTVYANGATVANLLAPVLAQFSLKYPKLRFEVHITSARQAMEALGAAEADLVVSLFAPKLSGVKVRSRTRISYDVIFPAGHALAAQPEVSLKELAGMPLALPDKSFAARQAFDTLFADAGIELDPVFITSSLEMLKELVLGNAAATLLPALSVAREIRSGQMVAVPLAGKKGIHTQIDLCVAPDRQLSFAASKLADFIERFMREATAG
MGSDKIHHHHHHMQNATLPLPLQSPLLAASGENRVRHGFFTRQGGVSEGLYQGLNVGLGSHDEPEKVQENRRRVTQWFGLSADRLATVHQVHSPDVVVVDDNYDGNRPQADAMVTATPGFVLGVLSADCGPILFADAQAGVVGAAHAGWKGALFGVLENTIEAMVKLGASRERIAASLGPSISQDNYEVGPEYVARFTDIDPAYADYFAATERQGHALFDLKQFTIDRLTKAGVKAENLGLCTYPDEHRFYSYRRTTHRAEPDYGRQISAIAILED
MGSDKIHHHHHHMQNKNKTVVKSMALLNLFLHKPSLTLSELVSLTGMPKTSVHRMVSSLEEMGFLSRDASGAYSLGLVFLEFGQLVADRLDIRKIAKPVMEELCREVDEAVQLIMRDGNEAIYVEKIEGTQTVRLYTAIGRRSPLYAGACARSILSFLPREEIEAYIKQTELISIGSGTITDPEKLLQEIDASVQNGYTVSYSELENYTAAIGAPIFNHERQVAAGISIAGFEARFTEDRLPYLTEKVKDAALQISRK
MGSDKIHHHHHHMQNLDALLIFARVAEMTSFTRAAESLGIQKGRVSMVIRKLERDVGVALLHRTTRSVQLTEDGRAFYSRARDLLAEVQELQSMFSGNGTRLRGRLRVDMPTELARSVVVPALPQLMAAHPELELELSSTDRRVDLVQEGFDCVIRLGPITDDTLIARPLGKLRMTNAASPGYLARYGIPHTLDDLRTQGHRMVHYTLTLGARHPGWEYPNGDGYASLPLPSAMQVNSVQTYHAAGLAGIGLIQAGYSALAHHIESGALVEVLPDLRPEPLAASLVVAHRRNLSPRVRAFMDWIEGVLAPYLD
MGSDKIHHHHHHMQNPPPPFNQNHLLAALPPAELERLKPHLELVHMPLGDVLCESGGRLSYVYFPTSAIISLHYILENGSSSEVAGVGNEGLLGISLFMGGENTPTWATVQTAGYCYRLKGPLLLQEFNQGGPLQRVLLRYTQALITQISQTAVCNRHHTIEQQLCRWLLLTLDRLNSQELVMTQELIASMLGVRREGITEAAGKLQQAEIIRYRRGHITVLNRAGLEGHVCECYEVVKKEFERLFRDVKKS
MGSDKIHHHHHHMQSFKIIKPIHILTPYVRYYWILEDGADVSVSERTLPTGCIQLVFHRGKRLLLVGKKESQPQAFICGQCLNFSDVMSAGKIEMITVVFQPYAARAILQLPLKFFYGELIAVDAIADLELSILSRKVIEADDHETCIRLIEQFLIHRLYRFEGYEYNLKRISAVLHQINEQAKTNISELSETACLSSKQFNRIFLDYVGATPKEFLRIVRMQRALFKVQQNPSISFAQLAYECGFSDQSHMIKEFKLFSGYTPTEYLSLCAPYSDYFSE
